The values below come from PMC11982978, “Cancer hotspot mutations rewire ERK2 specificity by selective exclusion of docking interactions” (The Journal of Biological Chemistry, 2025).

Like-named read-outs stand apart in the source and are kept apart here. Ends that are not written are not given here.

In test [1] the target is T1, Active phosphorylated His6-tagged ERK2 D319N (rat (p-0033 says mouse)), P63086.
T1 chain: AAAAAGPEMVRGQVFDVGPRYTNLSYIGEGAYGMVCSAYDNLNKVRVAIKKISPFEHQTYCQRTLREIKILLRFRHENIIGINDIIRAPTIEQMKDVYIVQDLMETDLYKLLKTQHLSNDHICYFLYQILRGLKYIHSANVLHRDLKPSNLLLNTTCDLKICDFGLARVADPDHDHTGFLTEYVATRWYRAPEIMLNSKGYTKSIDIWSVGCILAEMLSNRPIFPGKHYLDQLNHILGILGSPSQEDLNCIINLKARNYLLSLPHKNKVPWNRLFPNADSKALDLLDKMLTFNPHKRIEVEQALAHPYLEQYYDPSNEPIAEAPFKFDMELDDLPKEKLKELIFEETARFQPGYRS
Nature of the test: competitive peptide kinase assay; D-peptide titrated as competitive inhibitor of 10 nM ERK2 on 5 μM D-site dependent reporter peptide (AQT0376), 10 μM ATP; 54 mM HEPES pH 7.4, 1.2 mM DTT, 0.01% Brij-35, 1% glycerol, 0.2 mg/ml BSA, 10 mM MgCl2; fluorescence read-out; IC50 as relative binding affinity.

The target in test [2] is T2, Active phosphorylated His6-tagged ERK2 WT (rat (p-0033 says mouse)), P63086. The test is described as above.
The target of test [3] is T3, Active phosphorylated His6-tagged ERK2 E320K (rat (p-0033 says mouse)), P63086.
T3 chain: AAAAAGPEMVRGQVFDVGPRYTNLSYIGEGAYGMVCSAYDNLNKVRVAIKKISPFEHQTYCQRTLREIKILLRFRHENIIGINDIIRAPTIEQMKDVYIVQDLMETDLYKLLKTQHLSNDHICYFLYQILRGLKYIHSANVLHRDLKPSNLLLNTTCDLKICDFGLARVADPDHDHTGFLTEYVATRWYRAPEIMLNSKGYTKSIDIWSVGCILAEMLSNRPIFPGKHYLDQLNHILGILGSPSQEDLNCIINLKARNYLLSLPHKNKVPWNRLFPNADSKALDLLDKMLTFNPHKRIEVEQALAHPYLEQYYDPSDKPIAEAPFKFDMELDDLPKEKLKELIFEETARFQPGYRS
The test is described as above.

For test [4], the target named is T4, Active phosphorylated His6-tagged ERK2 R133K (rat (p-0033 says mouse)), P63086.
T4 chain: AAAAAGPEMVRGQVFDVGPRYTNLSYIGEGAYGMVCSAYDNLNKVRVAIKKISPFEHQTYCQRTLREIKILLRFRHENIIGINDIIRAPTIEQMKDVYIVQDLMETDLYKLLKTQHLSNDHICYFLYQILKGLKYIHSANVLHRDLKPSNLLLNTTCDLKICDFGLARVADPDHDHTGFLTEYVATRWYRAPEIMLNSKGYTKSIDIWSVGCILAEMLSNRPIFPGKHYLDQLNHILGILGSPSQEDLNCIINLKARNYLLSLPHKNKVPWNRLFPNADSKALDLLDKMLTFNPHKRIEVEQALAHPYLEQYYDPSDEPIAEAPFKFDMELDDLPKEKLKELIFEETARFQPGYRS
Described as above.

The target in test [5] is T3, Active phosphorylated His6-tagged ERK2 …. The note with it: modification not given; phosphorylated (active form; sites not given).
Test [6] addresses T1, Active phosphorylated His6-tagged ERK2 …. The note with it: modification not given; phosphorylated (active form; sites not given).
In test [7] the target is T4, Active phosphorylated His6-tagged ERK2 …. The note with it: modification not given; phosphorylated (active form; sites not given).
Test [8] addresses T2, Active phosphorylated His6-tagged ERK2 …. The note with it: modification not given; phosphorylated (active form; sites not given).
Test [9] addresses T4, Active phosphorylated His6-tagged ERK2 …. The note with it: modification not given; phosphorylated (active form; sites not given).
Test [10] has as its target T3, Active phosphorylated His6-tagged ERK2 …. The note with it: modification not given; phosphorylated (active form; sites not given).
Test [11] addresses T1, Active phosphorylated His6-tagged ERK2 …. The note with it: modification not given; phosphorylated (active form; sites not given).
Test [12] concerns the target T2, Active phosphorylated His6-tagged ERK2 …. The note with it: modification not given; phosphorylated (active form; sites not given). This is another data set of the same source.
For test [13] the target is unchanged. The note with it: modification not given; phosphorylated (active form; sites not given). This is another data set of the same source.
The target in test [14] is T4, Active phosphorylated His6-tagged ERK2 …. The note with it: modification not given; phosphorylated (active form; sites not given).
For test [15], the target named is T3, Active phosphorylated His6-tagged ERK2 …. The note with it: modification not given; phosphorylated (active form; sites not given).
In test [16] the target is T1, Active phosphorylated His6-tagged ERK2 …. The note with it: modification not given; phosphorylated (active form; sites not given).

B1: ISG20 D-peptide G2+ (peptide)
chain: IGRARRGLPRLAVSD
modifications: not checked
Turning to B1, the IC50 – broadly, the concentration needed to halve the response being measured – in [1] turned out to be 150 µM; in test [2], 120 µM; in [3] it was 170 µM; in [4], 150 µM.

B2: MAP2K2 (peptide)
chain: ARRKPVLPALTINP
modifications: not fully specified (some residues, N-terminus)
B2: the IC50 is 41 µM in test [5], 23 µM in test [6], 29 µM in [7] and 23 µM in [8].

B3: PTPN5 (peptide)
chain: GLQERRGSNVSLTL
modifications: not fully specified (some residues, N-terminus)
Take B3: the IC50 in test [9] amounted to 760 µM; in test [10], 600 µM; in [11], 600 µM; in test [12] it was 42 µM.

B4: ISG20 D-peptide G7+ (peptide)
chain: IRARRGGLPRLAVSD
modifications: not checked
Take B4: the IC50 in [1] was determined as 150 µM; in test [2], 75 µM; in test [3], 210 µM; in test [4] it was 170 µM.

B5: ELK1 (peptide)
chain: PQKGRKPRDLELPL
modifications: not fully specified (some residues, N-terminus)
Take B5: the IC50 in test [13] turned out to be 35 µM; in test [14] it was 58 µM; in [15], 43 µM; in [16], 32 µM.
